Experimental data: article PMC8235110, “Effective Tumor Targeting by EphA2-Agonist-Biotin-Streptavidin Conjugates” (Molecules, 2021)
Entries after “also recorded” stand apart in the source; their conditions may differ. Square brackets hold non-standard residues; d marks the D form. Peptide text beside a SMILES is read from it. * marks the point of attachment. 4‑CH3‑Tyr = 4-CH3-Tyr: 4-methyl-tyrosine, a non-natural residue; 2Benzofuroyl(3-Me,6,7-diOMe) = COc1ccc2c(C)c(C(=O)*)oc2c1OC; Phe(4-Cl) = N[C@@H](Cc1ccc(Cl)cc1)C(=O)O; Hyp = O=C(O)[C@@H]1C[C@@H](O)CN1

Tests used:
[1] = target: T1, EphA2-LBD (6xHis-EphA2 ligand-binding domain) (Homo sapiens, UniProt P29317); test: DELFIA displacement of biotinylated EphA2-binding reference peptide; details: DELFIA dose-response; listed as scrambled version of 135H11
T1 construct: made in house
T1 sequence (P29317 28-206 limits assumed): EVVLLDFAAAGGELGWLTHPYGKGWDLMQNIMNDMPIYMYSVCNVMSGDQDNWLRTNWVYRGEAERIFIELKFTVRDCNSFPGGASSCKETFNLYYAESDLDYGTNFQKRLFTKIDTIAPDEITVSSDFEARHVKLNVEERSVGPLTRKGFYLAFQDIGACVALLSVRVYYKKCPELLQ

purified EphA2-LBD = target: T2, purified EphA2-LBD (Homo sapiens, UniProt P29317); test: reverse isothermal titration calorimetry (ITC); format: binding; details: reverse ITC titration with purified EphA2-LBD
T2 construct: made in house
T2 sequence (P29317 28-206 limits assumed): as above

[2] = target: 6xHis-EphA2 ligand-binding domain; test: ITC; reverse ITC titration with purified EphA2-LBD
Sequence of 6xHis-EphA2 ligand-binding domain (P29317 whole entry, the tested form may be a part): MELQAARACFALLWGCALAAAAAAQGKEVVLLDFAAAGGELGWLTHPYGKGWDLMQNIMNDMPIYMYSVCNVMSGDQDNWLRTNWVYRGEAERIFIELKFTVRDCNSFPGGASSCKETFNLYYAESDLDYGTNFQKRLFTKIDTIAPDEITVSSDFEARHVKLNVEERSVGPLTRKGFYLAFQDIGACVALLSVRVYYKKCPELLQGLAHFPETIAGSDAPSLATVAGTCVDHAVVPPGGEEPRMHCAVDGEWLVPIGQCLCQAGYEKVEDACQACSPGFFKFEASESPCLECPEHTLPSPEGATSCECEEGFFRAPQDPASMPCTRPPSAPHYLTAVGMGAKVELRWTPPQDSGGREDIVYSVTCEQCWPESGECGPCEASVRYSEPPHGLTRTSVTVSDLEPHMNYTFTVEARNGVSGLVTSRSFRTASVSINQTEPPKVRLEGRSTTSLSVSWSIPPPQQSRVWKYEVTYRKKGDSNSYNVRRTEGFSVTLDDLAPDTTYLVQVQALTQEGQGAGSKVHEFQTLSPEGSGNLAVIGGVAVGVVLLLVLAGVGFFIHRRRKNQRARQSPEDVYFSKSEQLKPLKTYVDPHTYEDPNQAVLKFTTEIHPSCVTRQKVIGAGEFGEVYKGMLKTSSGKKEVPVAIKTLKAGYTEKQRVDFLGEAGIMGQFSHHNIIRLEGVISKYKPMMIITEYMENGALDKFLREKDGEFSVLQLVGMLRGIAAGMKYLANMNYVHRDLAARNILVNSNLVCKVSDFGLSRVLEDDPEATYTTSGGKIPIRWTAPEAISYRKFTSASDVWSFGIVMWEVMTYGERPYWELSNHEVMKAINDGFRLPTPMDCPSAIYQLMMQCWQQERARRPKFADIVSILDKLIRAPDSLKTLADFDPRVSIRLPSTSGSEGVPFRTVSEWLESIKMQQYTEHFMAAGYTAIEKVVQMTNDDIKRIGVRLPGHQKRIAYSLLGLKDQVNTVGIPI

[3] = target: 6xHis-EphA2 ligand-binding domain; test: DELFIA displacement assay; earlier-generation biotinylated EphA2-binding reference peptide captured on streptavidin-coated 96-well plates; 6xHis-EphA2-LBD and Europium-conjugated anti-6xHis antibody added together with the test agent at various doses; residual fluorescence read after washing
[4] = test system: EphA2 in MDA-MB-231 cells; test: EphA2 receptor degradation, Western blot, MDA-MB-231; format: cell-based, human; details: 1 h; 147B5 50 nM to 200 nM with streptavidin 50 nM (n = 1 to 4); scrambled 200 nM; 135H12 50 and 200 nM monomer concentration; ephrinA1-Fc 22 nM monomer (1 μg/mL); total EphA2, anti-EphA2 blot, relative to DMSO, duplicate
EphA2 in BxPC3 cells = test: EphA2 receptor degradation, Western blot, BxPC3; format: cell-based, human; details: 1 h; 147B5 50 nM to 200 nM with streptavidin 50 nM (n = 1 to 4); scrambled 200 nM; 135H12 50 and 200 nM monomer concentration; ephrinA1-Fc 22 nM monomer (1 μg/mL); total EphA2, anti-EphA2 blot, relative to DMSO, duplicate
Excerpt: (Table 1). […] In these cell-based assays, receptor activation and degradation could be simply monitored by detecting the ability of each agent to reduce EphA2 expression levels over time, after exposure of cells to test ligands. […] Negative controls were DMSO-treated cells or cells treated with the (scrambled 147B5)4-streptavidine complex (Figure 3).
For the control scrambled agent, we tested it at its maximal 4:1 molar ratio with streptavidin. For these experiments we treated cells with increasing concentrations of 147B5 (from 50 nM to 200 nM) in the absence or presence of streptavidin (50 nM). […]
Figure 4 Effect of 147B5 and its complexes with streptavidin at various ratios on EphA2 receptor degradation. […] (b) Densitometry analysis based on duplicate measurements of band intensities relative to the bands of DMSO-treated cells. * p ≤ 0.05, as determined by a one-way analysis of variance using Dunnett post-test analysis. […]
Cells were lysed with cell lysis buffer (20 mM Tris, pH 7.4, 120 mM NaCl, 1% Triton X-100, 0.5% sodium deoxycholate, 0.1% SDS, 1% IGEPAL, 5 mM EDTA), supplemented with EDTA-free Protease Inhibitor Cocktail and PhosStop (Sigma Aldrich) for 15 min on ice. […] Subsequently, Clarity Western ECL solution (BIO-RAD) was added to the blots prior to being imaged on a FluorChem (ProteinSimple) and analyzed with AlphaView software.

EphA2 = details: cited from earlier work

COc1ccc(C[C@H](NC(=O)[C@@H]2CCCN2C(=O)[C@H](CC(=O)O)NC(=O)c2oc3c(OC)c(OC)ccc3c2C)C(=O)N[C@@H](C)C(=O)N2C[C@H](O)C[C@H]2C(=O)N[C@@H](CC(C)C)C(=O)N[C@@H](CCCNC(=N)N)C(=O)NCC(=O)N[C@@H](Cc2ccc(Cl)cc2)C(=O)N2CCC[C@H]2C(=O)N[C@H](C(=O)N[C@@H](C)C(N)=O)C(C)C)cc1 [Scrambled-135H11] ({2Benzofuroyl(3-Me,6,7-diOMe)}-DPY(Me)A[Hyp]LRG[Phe(4-Cl)]PVA-NH2)
inhibition in DELFIA (in words) [1]: no inhibition

(3-CH3,6,7-OCH3,Benzofuranoic acid)DP(4-CH3-Tyr)A(Hyp)LRG(4-Cl-Phe)PVA-GK(Biotin LC)-CONH2 [Scrambled-147B5, scrambled 135H11-biotinylated (control)]
Kd (ITC) (purified EphA2-LBD; N.B. = no binding detected by ITC): N.B. (ITC)
binding to EphA2-LBD by ITC (in words) (purified EphA2-LBD; listed as 147B5 scrambled version): no appreciable binding was detected
binding to EphA2-LBD by ITC (in words) (purified EphA2-LBD; listed as scrambled version of 147B5): no binding detected

B1: 147B5 (135H11-biotinylated) (peptide)
peptide: LAYPDAVPFRPGK
modifications: N-terminal 3-CH3,6,7-OCH3,Benzofuranoic acid; 4-CH3-Tyr at position 3; Hyp (trans 4-hydroxy-L-proline) at position 8; 4-Cl-Phe at position 9; K(Biotin LC) at position 13 (LC: long 6 atom hydrocarbon chain between the biotin and the amide bond); C-terminal amide (-CONH2)
Kd [2]: 117 nM

{2Benzofuroyl(3-Me,6,7-diOMe)}-DP[4‑CH3‑Tyr]A[Hyp]LRG[Phe(4-Cl)]PVA-NH2 [Scrambled-135H11]
IC50 [3]: > 10000 nM

B2: ephrinA1-Fc: dimeric ephrinA1-Fc chimera, positive control (protein)
chain: DRHTVFWNSSNPKFRNEDYTIHVQLNDYVDIICPHYEDHSVADAAMEQYILYLVEHEEYQLCQPQSKDQVRWQCNRPSAKHGPEKLSEKFQRFTPFTLGKEFKEGHSYYYISKPIHQHEDRCLRLKVTVSGKITHSPQAHDNPQEKRLAADDPEVRVLHSIGHS
modifications: left off: Fc, end not stated, kept
notes: dimeric ephrinA1-Fc chimera, positive control
EphA2 receptor degradation in MDA-MB-231 cells (in words) [4]: significant degradation of the EphA2 receptor; also recorded: very effective in causing EphA2 degradation
EphA2 receptor degradation in BxPC3 cells (in words) (EphA2 in BxPC3 cells): nearly complete degradation of the EphA2 receptor
receptor degradation, agonistic effectiveness in cells (in words) (EphA2; at nanomolar concentrations, ref [5],[28],[29],[30],[31],[34]): dramatically more effective as an agonist
EphA2 dimer formation, activation, internalization, degradation (in words) (EphA2; legend of schematic, no reference given): can efficiently induce dimer formation and receptor activation, internalization, and degradation
